Here are results for two molecules from patent US20210009693A1 (MABSPACE BIOSCIENCES SUZHOU, published 2021).

Test [1] has as its target T1, Human PD-L1/CD274 with C-Fc Tag (hPD-L1-Fc) (human, UniProt Q9NZQ7 19-238).
T1 construct: range 19-238; ACRO Biosystem PD1-H5258, made in HEK293; also called human PD-L1-Fc; not shown: Fc fragment of human IgG1 at C-terminus
Nature of the test: blocking ELISA on coated hPD-L1-Fc; blocked ligand: biotinylated hPD-1-Fc-N297A. Here is the method:
High-binding clear polystyrene 96 well plates (Nunc) were coated with 100 μl/well of coating solution consisting of 0.5 μg/ml hPD-L1-Fc overnight at 4° C. Then washed once on an automatic plate washer using washing buffer PBS+0.1% Tween 20 (Sigma). 200 μl of blocking buffer (PBS+1% BSA+1% normal goat serum+0.05% Tween-20) was added to each well and incubated for 2 hours at room temperature. Then add serial diluted antibodies (from 10 μg/ml to 0.0006 μg/ml) with dilution buffer (PBS+1% BSA+1% normal goat serum+0.01% Tween-20) and incubate for 1 hour at RT. The plates were then washed 3 times using the method described above. […] After the plates were washed 3 times, 100 μl/well of a solution of HRP conjugated Neutravidin antibody (Pierce) diluted in dilution buffer was then added to each well of the plate. After that the ELISA plates were allowed to incubate for 60 min at RT then plates were washed 3 times with 250 μl/well washing buffer. Finally, 100 μl/well of TMB was added to each well and reaction was terminated using 0.64M H₂SO₄. The plates were read on a Thermo Multiscan FC at 450 nM (see FIG. 4A).
Background: ELISA stands for enzyme-linked immunosorbent assay.

The target in test [2] is T2, Recombinant Human PD-L1/CD274 Protein (hPD-L1-his) (human, UniProt Q9NZQ7 19-238).
T2 construct: range 19-238; ACRO Biosystem PD1-H5229, made in HEK293; also called human PD-L1-his; hPD-L-his
T2 sequence (Q9NZQ7 other isoform, or with tags, fused parts or gaps limits assumed): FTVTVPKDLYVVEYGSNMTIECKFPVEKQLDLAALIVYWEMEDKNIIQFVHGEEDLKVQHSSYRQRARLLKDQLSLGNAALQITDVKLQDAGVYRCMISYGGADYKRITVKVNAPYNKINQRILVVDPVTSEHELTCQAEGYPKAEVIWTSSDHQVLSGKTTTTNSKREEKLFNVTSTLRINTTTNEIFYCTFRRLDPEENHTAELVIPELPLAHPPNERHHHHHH
Nature of the test: ELISA, purified mouse antibody on coated hPD-L1-his. The protocol:
High-binding clear polystyrene 96 well plates (Nunc) were coated with 100 μl/well of a 0.5 μg/ml hPD-L1-his in high pH coating buffer and incubated overnight 4° C. Then plates were washed once on an automatic plate washer using washing buffer (PBS+0.1% Tween 20 (Sigma)). 200 μl of blocking buffer (PBS+1% BSA+1% normal goat serum+0.05% Tween-20) was added to each well and incubated 2 hours at room temp. Then add serially diluted purified antibodies with dilution buffer (PBS+1% BSA+1% normal goat serum+0.01% Tween-20) and incubate for 1 hour at RT. The plates were then washed 3 times using the method described above. 100 μl/well of a solution of HRP conjugated goat anti-mouse Fc antibody (Abcam) in dilution buffer was then added to each well of the plate. After that the ELISA plates were allowed to incubate for 60 min at RT then plates were washed 3 times with 250 μl/well washing buffer. Finally, 100 μl/well of TMB was added to each well and was terminated using 0.64M H₂SO₄. The plates were read on a Thermo Multiscan FC at 450 nM (see FIG. 3).

In test [3] the target is T3, Recombinant Mouse PD-L1/CD274 Protein (mPD-L1-his) (mouse, UniProt Q9EP73 19-238).
T3 construct: range 19-238; ACRO Biosystem PD1-M5220; also called mouse PD-L1-his
T3 sequence (Q9EP73 other isoform, or with tags, fused parts or gaps limits assumed): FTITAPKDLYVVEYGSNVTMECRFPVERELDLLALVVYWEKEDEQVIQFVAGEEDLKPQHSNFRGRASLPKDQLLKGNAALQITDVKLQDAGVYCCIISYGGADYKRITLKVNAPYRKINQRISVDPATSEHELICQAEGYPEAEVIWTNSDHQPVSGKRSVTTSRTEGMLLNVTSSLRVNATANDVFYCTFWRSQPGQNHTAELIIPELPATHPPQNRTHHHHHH
Nature of the test: ELISA, 20 ug/ml antibody on coated mouse PD-L1 (his-tagged per text, mPD-L1-Fc per sheet title). Here is the method: High-binding clear polystyrene 96 well plates (Nunc) were coated with 100 μl/well of 1 μg/ml mouse PD-L1-his in high pH coating buffer and incubated overnight at 4° C. Then plates were washed once on an automatic plate washer using washing buffer (PBS+0.1% Tween 20 (Sigma)). 200 μl of blocking buffer (PBS+1% BSA+1% normal goat serum+0.05% Tween-20) was added to each well and incubated for 2 hours at room temp. Then add 20 μg/ml purified hybridoma mouse antibodies in dilution buffer (PBS+1% BSA+1% normal goat serum+0.01% Tween-20) and incubate for 1 hour at RT. The plates were then washed 3 times with 250 μl/well washing buffer. 100 μl/well of a solution of HRP conjugated goat anti-mouse Fc antibody (Abcam) in dilution buffer was then added to each well of the plate. After that the ELISA plates were allowed to incubate for 60 min at RT then plates were washed 3 times with 250 μl/well washing buffer. Finally, 100 μl/well of TMB was added to each well and the reaction was terminated using 0.64M H₂SO₄. The plates were read on a Thermo Multiscan FC at 450 nM (see FIG. 6F).

For test [4], the target named is T4, wild type human PD-L1-Fc protein (SEQ ID NO: 107) (human).
T4 construct: Extracellular human PD-L1 (amino acid 19-238) with Fc fragment of human IgG1, expressed in 293T cells and used as culture supernatant; also called WT PD-L1; wild-type PD-L1
T4 sequence (chain, as listed by the source limits assumed): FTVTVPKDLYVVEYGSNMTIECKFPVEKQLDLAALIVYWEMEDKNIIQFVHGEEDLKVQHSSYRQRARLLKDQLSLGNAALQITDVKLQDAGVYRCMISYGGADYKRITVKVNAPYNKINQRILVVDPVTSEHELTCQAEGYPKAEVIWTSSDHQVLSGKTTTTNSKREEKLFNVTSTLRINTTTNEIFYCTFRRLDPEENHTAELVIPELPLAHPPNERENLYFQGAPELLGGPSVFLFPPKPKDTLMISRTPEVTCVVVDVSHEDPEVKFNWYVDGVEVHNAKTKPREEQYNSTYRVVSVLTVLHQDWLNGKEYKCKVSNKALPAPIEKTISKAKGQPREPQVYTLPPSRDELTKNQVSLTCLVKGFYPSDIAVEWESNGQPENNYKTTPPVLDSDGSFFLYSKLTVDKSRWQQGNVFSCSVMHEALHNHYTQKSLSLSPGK
Nature of the test: ELISA on captured PD-L1-Fc, as in Example 18A.

Test [5] addresses T5, human PD-L1-Fc mutant E58A (human).
T5 construct: Position 58 counts on native human PD-L1 (NP_054862.1); also called E58A mutant
Kind of test: ELISA on captured PD-L1-Fc, as in Example 18A.

Test [6] addresses T6, hPD-L2-Fc (human, UniProt Q9BQ51 20-219).
T6 construct: Acrobiosystems PD2-H5251; also called human PD-L2 protein; not shown: Fc tag
T6 sequence (looked up): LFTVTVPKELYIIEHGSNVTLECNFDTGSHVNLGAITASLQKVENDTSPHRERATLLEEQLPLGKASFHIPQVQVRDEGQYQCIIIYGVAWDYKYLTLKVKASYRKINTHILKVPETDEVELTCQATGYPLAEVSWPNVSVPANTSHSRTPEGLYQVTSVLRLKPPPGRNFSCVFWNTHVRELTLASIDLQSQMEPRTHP
Kind of test: ELISA, plate coated with hPD-L2-Fc. The protocol: Briefly, high-binding clear polystyrene 96 well plates (Nunc) were coated with 100 μl/well of a 0.5 μg/ml human PD-L1-Fc (Acrobiosystems, Cat #PD1-H5258) or 100 μl/well of a 1 μg/ml hPD-L2-Fc (Acrobiosystems, Cat #PD2-H5251), respectively, in high pH coating buffer (0.16% Na2CO3+0.3% NaHCO₃, pH 9.8) and incubated overnight at 4° C. Then the plates were washed once on an automatic plate washer using washing buffer (PBS+0.1% Tween 20 (Amresco)). 200 μl of blocking buffer (PBS+1% BSA+1% normal goat serum+0.05% Tween-20) was added to each well and incubated for 2 hours at room temp. Then add 100 μl 2 μg/ml purified PD-L1 antibodies with dilution buffer (PBS+1% BSA+1% normal goat serum+0.01% Tween-20) and incubate for 1 hour at RT. The plates were then washed 3 times with washing buffer. 100 μl/well of a solution of HRP conjugated goat anti-mouse IgG antibody (1:20000, Abcam) in dilution buffer was then added to each well of the plate. After that the ELISA plates were allowed to incubate for 60 min at RT then the plates were washed 3 times with 250 μl/well washing buffer. Finally, 100 μl/well of TMB was added to each well for 15 min and the reaction was terminated using 50 ul/well of 0.16 M/L sulfuric acid. The plates were read on a Thermo Multiscan FC at 450 nM (see FIG. 6G).

For test [7], the target named is T1, Human PD-L1/CD274 with C-Fc Tag …. Nature of the test: blocking ELISA on coated hPD-L1-Fc; blocked ligand: biotinylated hPD-1-N297A.
Test [8] concerns the target T7, human PD-L1 expressed on cells (human, UniProt Q9NZQ7 19-290).
T7 construct: whole, on cells; also called hPD-L1 expressed on HCC827; hPD-L1 on MC38/hPD-L1 cells
Nature of the test: blocking FACS on HCC827 cells; blocked ligand: biotinylated hPD-1-N297A. The protocol: Log phase IFN-γ stimulated (500U/ml for 2 days) HCC827 cells were collected and resuspended in blocking buffer (5% BSA+PBS). 2×10\hat{ }5 cells were added to each tube and then washed once with PBS (1500 rpm, 5 mins, RT). […] After washing for three times with PBS, 100 μl/tube streptavidin-PE 1:200 in blocking buffer was added to each tube. The cells were incubated at 4° C. for 1 hr and then washed twice with PBS, followed by resuspending cells in 150 μl PBS for each sample. The cells were then transferred into FACS tube and the binding of the antibodies to the cells were detected with flow cytometry (ACEA Bioscience Novocyte) (see FIGS. 20A and 20B).

In test [9] the target is T7, human PD-L1 expressed on cells. Nature of the test: FACS, IFN-gamma stimulated HCC827 cells. Background: Flow cytometry measures light scatter and fluorescence of single cells or particles in a stream.

T5 sequence (chain, as listed by the source E58A E58A limits assumed): as the sequence (chain, as listed by the source limits assumed) above, with E40A counted along it
T7 sequence (Q9NZQ7 19-290): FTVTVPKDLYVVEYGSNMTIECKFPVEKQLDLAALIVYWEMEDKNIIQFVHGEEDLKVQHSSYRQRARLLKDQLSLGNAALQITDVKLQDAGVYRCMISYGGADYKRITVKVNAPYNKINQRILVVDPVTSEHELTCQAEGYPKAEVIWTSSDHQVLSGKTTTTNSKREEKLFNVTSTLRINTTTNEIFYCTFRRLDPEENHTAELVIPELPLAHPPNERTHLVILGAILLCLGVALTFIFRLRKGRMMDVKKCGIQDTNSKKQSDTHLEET
T1 sequence (Q9NZQ7 19-238 limits assumed): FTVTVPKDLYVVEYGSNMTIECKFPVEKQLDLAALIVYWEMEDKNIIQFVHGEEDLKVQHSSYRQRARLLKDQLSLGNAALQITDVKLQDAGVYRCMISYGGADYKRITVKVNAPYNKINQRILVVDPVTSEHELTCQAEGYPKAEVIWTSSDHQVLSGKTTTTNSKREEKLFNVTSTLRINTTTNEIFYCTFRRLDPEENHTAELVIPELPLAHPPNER

B1: 26F5 (antibody, V domains shown)
VH: QVQLQQPGAELVKPGASVKLSCKASGYTFPSYWMHWMKQRPGQGLEWIGMIQPSTSGTIYNERFKNQVTLTVDKSSSTAYMQLSSQTSEDSAVYYCARGTGTVDYFDYWGQGTTLTVSS
VL: DIVLTQSPASLAVSLGQRATISCRASESVDSYGNSFIHWYQQKPGQPPKLLIHRASNLESGIPATFSGSGSRTDFTLTINPVEADDVATYYCQQSKEDPYTFGGGTKLEIK
notes: Mouse monoclonal from hybridoma; also called mouse monoclonal antibody 26F5
Consider B1, for which the “IC50 (read off the curve)” value in test [1] is about 0.02 µg/mL. Further, in test [2], the EC50 (read off the curve) (as a rule, the concentration at which the effect is half-maximal) was about 0.003 µg/mL. Moreover, the binding result in test [3] is “no binding (tested: 20 ug/ml)”. In addition, in test [4], the “Mean OD450” value was determined as 1.53 OD450, the “OD450 nM of sample-1” value was found to be 1.39 OD450 and the “OD450 nM of sample-2” value turned out to be 1.68 OD450. In addition, in [5], the “% of binding of Ab to E58A mutant vs. that to WT PD-L1” value was 60.6%, the “Mean OD450” value came to 0.93 OD450, the “OD450 nM of sample-1” value is 1.18 OD450 and the “OD450 nM of sample-2” value turned out to be 0.678 OD450. In addition, in [6], the binding result is recorded as “no binding (tested: 2 ug/ml)”.

B2: 4B6-H3L4 (antibody, V domains shown)
VH: QVQLVQSGAEVVKPGASVKISCKASGYVFTDYYMNWVKQAPGQGLEWIGDINPNNGGTSYNQKFQGRATVTVDKSTRTAYMELSRLRSDDTAVYYCVKWGDGPFAYWGQGTLVTVSS
VL: DIQMTQSPSSLSASVGDRVTITCQASQNVGAAVAWYQQKPGKAPKLLIYSASNLYTGVPSRFSGSGSGTDFTLTISSLQPEDIATYFCQQYSNYPTFGSGTKLGIK
notes: produced in 293 cells; light chain constant region not described; also called humanized 4B6 H3L4
With B2, the “IC50 (read off the curve)” value in [7] was about 0.03 µg/mL; in test [8], about 0.02 µg/mL. In test [9], the “EC50 (read off the curve)” value is about 0.04 µg/mL.
